Reference: patent US20130136735A1 (NKT THERAPEUTICS, published 2013)
Each block holds one binder with its values, some of them ahead of it.

Legend:
[1] = biological target: T1, recombinant soluble human iTCR (Hu-siTCR) (human); experiment: SPR (BIAcore)
T1 construct: Bought recombinant soluble heterodimer, coated on nickel (HIS-Select) plates; also called recombinant TCR heterodimer (Precision Antibody); purified TCR heterodimer

[2] = biological target: T1, recombinant soluble human iTCR …; experiment: ELISA using Hu-siTCR
human FcγRI [3] = biological target: T2, human FcγRI (human, UniProt P12314 16-288, limits assumed); experiment: summary of Example 2
T2 sequence (P12314 16-288 limits assumed): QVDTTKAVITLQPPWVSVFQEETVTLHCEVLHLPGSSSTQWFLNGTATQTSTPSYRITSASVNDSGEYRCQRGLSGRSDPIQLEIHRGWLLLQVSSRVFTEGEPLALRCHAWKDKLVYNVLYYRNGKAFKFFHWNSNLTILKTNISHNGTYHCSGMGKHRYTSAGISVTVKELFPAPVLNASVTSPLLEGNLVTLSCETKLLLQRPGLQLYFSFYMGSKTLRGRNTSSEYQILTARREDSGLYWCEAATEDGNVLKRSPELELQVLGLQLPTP

[4] = biological target: T1, recombinant soluble human iTCR …; experiment: competition ELISA on plate-bound recombinant TCR heterodimer; competitor biotinylated chimeric 6B11 IgG1; IC50 of test divided by IC50 of reference
human FcγRI [5] = biological target: T2, human FcγRI; experiment: ELISA / BIAcore, not said which
FcγRIII = biological target: T3, FcγRIII (human); experiment: in vitro binding experiments, afucosylated against fucosylated IgG1; reference not named
T3 construct: also called Fc-gamma-RIII
T3 sequence (P08637 17-208): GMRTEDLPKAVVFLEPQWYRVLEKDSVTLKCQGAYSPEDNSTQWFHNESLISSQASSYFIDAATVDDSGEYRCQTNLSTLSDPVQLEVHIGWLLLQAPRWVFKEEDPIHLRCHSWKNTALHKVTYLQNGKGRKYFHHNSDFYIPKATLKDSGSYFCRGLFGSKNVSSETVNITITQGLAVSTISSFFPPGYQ

human FcγRI [6] = biological target: T2, human FcγRI; experiment: ELISA
complement component C1q = complement component C1q (human, UniProt P02745 23-245; P02746 28-253; P02747 29-245); experiment: ELISA
Chain of complement component C1q (P02745 23-245 limits assumed, chain 1 of 3): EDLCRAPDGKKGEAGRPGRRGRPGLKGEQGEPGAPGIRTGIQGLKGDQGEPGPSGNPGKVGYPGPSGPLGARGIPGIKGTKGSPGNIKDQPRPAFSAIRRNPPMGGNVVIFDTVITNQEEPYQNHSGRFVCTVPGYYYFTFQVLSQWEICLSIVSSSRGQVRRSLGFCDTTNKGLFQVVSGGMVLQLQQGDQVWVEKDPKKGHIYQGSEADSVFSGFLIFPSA
Chain of complement component C1q (P02746 28-253 limits assumed, chain 2 of 3): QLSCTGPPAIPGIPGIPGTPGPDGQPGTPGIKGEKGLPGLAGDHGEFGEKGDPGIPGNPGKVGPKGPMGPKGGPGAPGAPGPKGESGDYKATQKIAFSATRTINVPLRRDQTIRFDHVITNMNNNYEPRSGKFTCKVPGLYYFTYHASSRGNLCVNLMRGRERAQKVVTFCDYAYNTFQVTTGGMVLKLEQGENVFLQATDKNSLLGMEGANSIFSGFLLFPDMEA
Chain of complement component C1q (P02747 29-245 limits assumed, chain 3 of 3): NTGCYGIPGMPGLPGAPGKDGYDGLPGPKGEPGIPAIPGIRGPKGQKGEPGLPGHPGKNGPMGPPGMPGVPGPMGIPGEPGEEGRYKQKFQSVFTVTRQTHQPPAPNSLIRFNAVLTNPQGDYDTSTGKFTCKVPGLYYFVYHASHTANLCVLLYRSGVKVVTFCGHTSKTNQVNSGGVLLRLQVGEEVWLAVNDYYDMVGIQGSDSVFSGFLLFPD

B1: NKTT120 (antibody, human IgG1, kappa)
heavy: not shown
light: DIQMTQSPSSLSASVGDRVTITCKASQDVSTAVAWYQQKPGQAPRLLIYWASTRHTGVPSRFSGSGSGTDFTLTISSLQPEDFALYYCQQHYSTPWTFGQGTKLEIKRTVAAPSVFIFPPSDEQLKSGTASVVCLLNNFYPREAKVQWKVDNALQSGNSQESVTEQDSKDSTYSLSSTLTLSKADYEKHKVYACEVTHQGLSSPVTKSFNRGEC
notes: Humanized IgG1 with VH4 and VK4; also called VH 4/VK4; VH 4/Vκ4
Kd [1]: ~60 nM | IC50 [2]: 0.2 µg/mL | binding result (human FcγRI [3]): binds | Relative IC50 [4]: 0.212 ratio to chimeric 6B11 IgG1

B3: NKTT219 (antibody, human IgG1)
heavy: not shown
VL: DIVMTQSPSSLSASVGDRVTITCKASQDVSTAVAWYQQKPGQAPRLLIYWASTRHTGVPSRFSGSGSGTDFTLTISSLQPEDFALYYCQQHYSTPWTFGQGTKLEIK
modifications: non-fucosylated (afucosylated) carbohydrate in the Fc portion
notes: also called ADCC-enhanced humanized IgG1
fold improvement of binding (FcγRIII): ≤ 100 fold

Next, values leading:

binding result (human FcγRI [5]): no binding
B2: NKTT320 (antibody, human IgG4 S228P, kappa)
heavy: not shown
light: B1 light
notes: also called modified IgG4 anti-iNKT mAb

binding result (human FcγRI [6]): binds | binding result (complement component C1q): binds | IC50 [2]: 1 µg/mL
B4: NKTT103 (6B11 chimeric IgG1 control antibody) (antibody)
heavy: not shown
light: DIVMTQSHKFMSTSVGDRVSITCKASQDVSTAVAWYQQKPGQSPKLLIYWASTRHTGVPDRFTGSGSGTDYTLTISSVQAEDLALYYCQQHYSTPWTFGGGTKLEIKRTVAAPSVFIFPPSDEQLKSGTASVVCLLNNFYPREAKVQWKVDNALQSGNSQESVTEQDSKDSTYSLSSTLTLSKADYEKHKVYACEVTHQGLSSPVTKSFNRGEC
notes: Murine 6B11 V regions on human IgG1; also called chimeric 6B11 IgG1; chimeric 6B11 mAb
